Measured values taken from article PMC9209446, “Structural basis of template strand deoxyuridine promoter recognition by a viral RNA polymerase”.

Biological target: AR9 nvRNAP promoter-specificity subunit gp226 (sigma-like);AR9 nvRNAP betaN subunit gp105;AR9 nvRNAP betaC … (Bacillus phage AR9 (Bacillus subtilis …, UniProt A0A172JIC8;A0A172JI16;A0A172JHZ2;A0A172JIH0;A0A172JI62 …, ||||))
Assay: X-ray crystallography; crystals from 150 mM MIB pH 5, 150 mM LiCl, 13% PEG 1500; 4 mM MgCl2 in DNA annealing buffer; Complex for structures: 34 uM holoenzyme + 50 uM DNA, 30 min at room temperature; DNA annealed in 20 mM Bis-tris propane pH 6.8, 100 mM NaCl, 4 mM MgCl2, 0.5 mM EDTA; crystallized at 19 C
Conditions: protein: recombinant;recombinant;recombinant;recombinant;recombinant; tags: ;;;;; copies: 1;1;1;1;1; 14 bp duplex with 18 nt 3' overhang on strand 1

B1: P077 promoter forked oligonucleotide, template [-16;+16] all U / non-template [+3;+16] (dsDNA)
DNA 1: CTCCAATATGTGATATAATATAUUGUUUATTG
DNA 2: ATCACATATTGGAG
modifications: deoxyuridine at the printed U positions of strand 1; both strands DNA
binding result: binds
